Laboratory results from PMC7954794, “Protein context shapes the specificity of SH3 domain-mediated interactions in vivo” (Nature Communications, 2021).

B1: ABP1 F49F (protein, UniProt P15891 2-592, looked up)
Actin-binding protein: ALEPIDYTTHSREIDAEYLKIVRGSDPDTTWLIISPNAKKEYEPESTGSSFHDFLQLFDETKVQYGLARVSPPGSDVEKIIIIGWCPDSAPLKTRASFAANFAAVANNLFKGYHVQVTARDEDDLDENELLMKISNAAGARYSIQTSSKQQGKASTPPVKKSFTPSKSPAPVSKKEPVKTPSPAPAAKISSRVNDNNDDDDWNEPELKERDFDQAPLKPNQSSYKPIGKIDLQKVIAEEKAKEDPRLVQKPTAAGSKIDPSSDIANLKNESKLKRDSEFNSFLGTTKPPSMTESSLKNDDDKVIKGFRNEKSPAQLWAERKAKQNSGNAETKAEAPKPEVPEDEPEGEPDVKDLKSKFEGLAASEKEEEEMENKFAPPPKKSEPTIISPKPFSKPQEPVKAEEAEQPKTDYKKIGNPLPGMHIEADNEEEPEENDDDWDDDEDEAAQPPLPSRNVASGAPVQKEEPEQEEIAPSLPSRNSIPAPKQEEAPEQAPEEEIEEEAEEAAPQLPSRSSAAPPPPPRRATPEKKPKENPWATAEYDYDAAEDNELTFVENDKIINIEFVDDDWWLGELEKDGSKGLFPSNYVSLGN
modifications: synonymous F49F
B2: ABP1 Y53Y (protein, UniProt P15891 2-592, looked up)
Actin-binding protein: B1 Actin-binding protein
modifications: synonymous codon change Y53Y
B3: ABP1 S51S (protein, UniProt P15891 2-592, looked up)
Actin-binding protein: B1 Actin-binding protein
modifications: synonymous codon S51S
B4: ABP1 P50P (protein, UniProt P15891 2-592, looked up)
Actin-binding protein: B1 Actin-binding protein
modifications: synonymous codon change P50P
B5: ABP1 T18T (protein, UniProt P15891 2-592, looked up)
Actin-binding protein: B1 Actin-binding protein
modifications: synonymous codon change T18T
B6: ABP1 V20V (protein, UniProt P15891 2-592, looked up)
Actin-binding protein: B1 Actin-binding protein
modifications: synonymous V20V codon change in SH3
B7: ABP1 D23D (protein, UniProt P15891 2-592, looked up)
Actin-binding protein: B1 Actin-binding protein
modifications: synonymous codon change D23D
B8: ABP1 N22N (protein, UniProt P15891 2-592, looked up)
Actin-binding protein: B1 Actin-binding protein
modifications: synonymous codon change N22N
B9: ABP1 F19F (protein, UniProt P15891 2-592, looked up)
Actin-binding protein: B1 Actin-binding protein
modifications: synonymous codon change F19F
B10: ABP1 E21E (protein, UniProt P15891 2-592, looked up)
Actin-binding protein: B1 Actin-binding protein
modifications: synonymous codon change E21E in SH3
B11: YDR329C (protein, UniProt P28795 1-441, looked up)
Peroxisomal biogenesis factor …: MAPNQRSRSLLQRHRGKVLISLTGIAALFTTGSVVVFFVKRWLYKQQLRITEQHFIKEQIKRRFEQTQEDSLYTIYELLPVWRMVLNENDLNLDSIVTQLKDQKNQLTRAKSSESRESSPLKSKAELWNELELKSLIKLVTVTYTVSSLILLTRLQLNILTRNEYLDSAIKLTMQQENCNKLQNRFYNWVTSWWSDPEDKADDAMVMAAKKSKKEGQEVYINEQAFLSLSWWILNKGWLSYNEIITNQIEIEFDGIHPRDTLTLEEFSSRLTNIFRNTNSQIFQQNNNNLTSILLPKDSSGQEFLLSQTLDADALTSFHSNTLVFNQLVNELTQCIESTATSIVLESLINESFHFIMNKVGIKTIAKKKPGQEDQQQYQMAVFAMSMKDCCQEMLQTTAGSSHSGSVNEYLATLDSVQPLDDLSASVYSNFGVSSSFSFKP
B12: YGL153W (protein, UniProt P53112 2-341, looked up)
Peroxisomal membrane protein …: SDVVSKDRKALFDSAVSFLKDESIKDAPLLKKIEFLKSKGLTEKEIEIAMKEPKKDGIVGDEVSKKIGSTENRASQDMYLYEAMPPTLPHRDWKDYFVMATATAGLLYGAYEVTRRYVIPNILPEAKSKLEGDKKEIDDQFSKIDTVLNAIEAEQAEFRKKESETLKELSDTIAELKQALVQTTRSREKIEDEFRIVKLEVVNMQNTIDKFVSDNDGMQELNNIQKEMESLKSLMNNRMESGNAQDNRLFSISPNGIPGIDTIPSASEILAKMGMQEESDKEKENGSDANKDDNAVPAWKKAREQTIDSNASIPEWQKNTAANEISVPDWQNGQVEDSIP
B13: YLR191W (protein)
chain: EFARALYDFVPENPEMEVALKKGDLMAILSKKDPLGRDSDWWKVRTKNGNIGYIPYNYIEIIK

Test system: Lsb3
Assay: Deep mutational scanning of Abp1 SH3, Abp1-Lsb3 DHFR-PCA (DMS score)
Assay type: cell-based, Saccharomyces cerevisiae
Details: Abp1-Lsb3 DHFR-PCA, MTX2; scaled to synonymous mutation distribution
Method: (§1) Single site mutation libraries were generated by a PCR-based saturation mutagenesis method[50] as described below. The mutagenesis was carried out on the pUC19 plasmid containing the SH3 domain sequence of ABP1 flanked by its homology arms subsequently used in the CRISPR mediated genomic re-integration. We used oligos containing degenerate nucleotides (NNN) to carry out the mutagenesis at each codon of the domain sequence. In the first step of the two-step PCR procedure (short PCR step), an amplicon was generated with an oligo containing the degenerate codon which is positioned within the domain sequence, and another oligo lying outside Abp1 sequence in the plasmid. Short PCR step was carried out with the following settings: 5 min at 95 °C, 35 cycles: 20 s at 98 °C, 15 s at 60 °C, 30 s at 72 °C, and a final extension of 1 min at 72 °C. The amplicon generated in this step was used as a mega primer in the second step (long PCR step) to amplify the whole plasmid. Long PCR step was carried out with the following settings: 5 min at 95 °C, 22 cycles: 20 s at 98 °C, 15 s at 68 °C, 3 min 30 s at 72 °C, and a final extension of 5 min at 72 °C. The long PCR product was digested for 2 h at 37 °C with DpnI. The digestion product was then transformed into E. coli MC1061 competent cells. In order to obtain most of the 64 possible codons, we recovered ~1000 colonies from each plate to retrieve the plasmid single mutant libraries. Saturation mutagenesis was carried out in a codon-position-wise manner. Mutants at each position were stored separately. Library quality control was assessed by amplifying the purified plasmid DNA preparations by PCR followed by Illumina sequencing as described below. The genomic insertion of the mutant libraries (one library per amino acid position) was performed by targeting the stuffer sequence in the ABP1 SH3-deleted strain as described in the strain construction section. ABP1 SH3-deleted yeast competent cells were co-transformed with pCAS containing the stuffer-specific gRNA and PCR amplified ABP1 SH3 single position mutated libraries from the pUC19 preparations. As for the library generation, ~1000 colonies from each plate were retrieved. Glycerol stocks of yeast cells were kept for each position (58 different stocks corresponding to the 58 amino acid positions of Abp1 SH3). The stocks were also validated by Illumina sequencing (see below).
(§2) Liquid DHFR-PCA experiments were performed following the generation of the ABP1 SH3 single position mutated yeast strains and were performed in biological independent duplicates. An overnight culture was started in YPD + NAT by adding the same number of cells from each yeast mutant strain (master pool). Then, the master pool and Hua2-DHFR F[3] or Lsb3-DHFR F[3] preys strains were mixed in YPD (2:1) for mating and incubated for 8 h at 30 °C. Diploid cells were selected the first time by transferring the mixture in a YPD + NAT + HPH (OD 0.5) culture for 16 h at 30 °C. The next day, the first diploid selection was transferred in SC complete pH 6.0 + NAT + HPH at 0.5 OD and the culture was grown for 24 h at 30 °C. The validation of the yeast mutant libraries was done the next day with a fraction of the diploid cells (first DHFR-PCA experiment time point without PCA selection, reference condition S2) by amplifying ABP1 SH3 genomic sequence followed by Illumina sequencing as described in the section below. Following the selection, diploid cells OD was read using a TECAN Infinite F200 Pro, and dilutions to 0.1 OD in PCA selection media without agar in a 50 mL tube was done. Tubes were incubated at 30 °C for 72 h (second-time point of the DHFR-PCA experiment, first PCA selection). A fraction of the cells (5U OD) was collected for Illumina sequencing. The cells from the first PCA step were grown for a second PCA selection step using the same procedures. […]

Molecule | lsb3sc: Frequencies scaled to the synonymous mutation distribution (DMS score)
B1 | -0.3759
B2 | -0.1658
B3 | 0.05209
B4 | -0.6263

Same assay, conditions: Abp1-Lsb3 DHFR-PCA, MTX2; single amino acid variants of Abp1 SH3

Molecule | LSB3_MTX2: frequencies normalized to the reference condition
B1 | 1.124
B2 | 1.335
B3 | 1.552
B4 | 0.874

Same assay, conditions: frequencies normalized to the reference condition; Abp1-Lsb3 DHFR-PCA, MTX2; amino acid level

Molecule | LSB3_MTX2
B5 | 1.406
B6 | 1.496
B7 | 1.357
B8 | 0.8355
B9 | 1.966
B10 | 2.169

Same assay, conditions: frequencies scaled to the synonymous mutation distribution; Abp1-Lsb3 DHFR-PCA

Molecule | lsb3sc (DMS score)
B5 | -0.09387
B6 | -0.004531
B7 | -0.1431
B8 | -0.6648
B9 | 0.4657
B10 | 0.669

Test system: Hua2
Assay: Deep mutational scanning of Abp1 SH3, Abp1-Hua2 DHFR-PCA (DMS score)
Assay type: cell-based, Saccharomyces cerevisiae
Details: Abp1-Hua2 DHFR-PCA, MTX2; scaled to synonymous mutation distribution
Method: as §1, §2

Molecule | hua2sc: Frequencies scaled to the synonymous mutation distribution (DMS score)
B1 | 0.1177
B2 | -0.26
B3 | -0.02064
B4 | -0.6569

Same assay, conditions: Abp1-Hua2 DHFR-PCA, MTX2; single amino acid variants of Abp1 SH3

Molecule | HUA2_MTX2: frequencies normalized to the reference condition
B1 | 1.73
B2 | 1.353
B3 | 1.592
B4 | 0.9559

Same assay, conditions: classification from both Hua2 and Lsb3 DMS scores; Dest. both / Dest. Hua2 / Dest. Lsb3 / Neutral

Molecule | quadrant (effect of mutation on Hua2 and Lsb3 interactions)
B1 | Neutral
B2 | Neutral
B3 | Neutral
B4 | Neutral

Same assay, conditions: frequencies normalized to the reference condition; Abp1-Hua2 DHFR-PCA, MTX2; amino acid level

Molecule | HUA2_MTX2
B5 | 1.603
B6 | 1.042
B7 | 1.908
B8 | 0.8417
B9 | 2.091
B10 | 2.3423

Same assay, conditions: frequencies scaled to the synonymous mutation distribution; Abp1-Hua2 DHFR-PCA

Molecule | hua2sc (DMS score)
B5 | -0.009347
B6 | -0.571
B7 | 0.295
B8 | -0.7711
B9 | 0.4783
B10 | 0.7295

Test system: BEM1-1
Assay: DHFR-PCA on solid medium, bait BEM1-1 (Fig. 1B)
Assay type: cell-based, Saccharomyces cerevisiae
Details: bait BEM1-1, label = prey; 2-8 replicates
Source text: Supplement 41467_2021_21873_MOESM8_ESM.xlsx, sheet "Fig1B" | column: medsize; medrep; Ratio; Score

Molecule | medrep (log2 median colony size normalized to plate background, PCA score)
B11 | 2.151
B12 | 2.088
B13 | 3.807

Same assay, conditions: bait BEM1-1, label = prey; only significant differences showed; PPIs completely lost have a ratio of 0.1 and the gained PPIs 2.5

Molecule | Ratio (SH3-deleted/WT medrep)
B11 | 2.5
B12 | 2.5
B13 | 2.5
